Data from patent US20040086503A1 (Amgen, published 2004).

B1: anti-IGF-IR antibody 4.9.2 (antibody, human IgG2, V domains shown)
VH: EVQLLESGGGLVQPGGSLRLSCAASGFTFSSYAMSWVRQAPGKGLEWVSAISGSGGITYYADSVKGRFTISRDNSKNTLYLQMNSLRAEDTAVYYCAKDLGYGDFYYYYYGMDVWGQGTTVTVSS
VL: DIQMTQSPSSLSASVGDRVTITCRASQGIRSDLGWFQQKPGKAPKRLIYAASKLHRGVPSRFSGSGSGTEFTLTISRLQPEDFATYYCLQHNSYPLTFGGGTKVEIK
notes: Human IgG2 kappa; Biotinylated in the FACS assay
B2: anti-IGF-IR antibody 2.12.1 (antibody, V domains shown)
VH: QAQLVESGGGLVKPGGSLRLSCAASGFTFSDYYMSWIRQAPGKGLEWVSYISSSGSTRDYADSVKGRFTISRDNAKNSLYLQMNSLRAEDTAVYYCVRDGVETTFYYYYYGMDVWGQGTTVTVSS
VL: DIQMTQSPSSLSASVGDRVTFTCRASQDIRRDLGWYQQKPGKAPKRLIYAASRLQSGVPSRFSGSGSGTEFTLTISSLQPEDFATYYCLQHNNYPRTFGQGTEVEIIR
notes: Fully human IgG2 kappa from a XenoMouse hybridoma; Biotinylated in the FACS assay
B3: anti-IGF-IR antibody 2.13.2 (antibody, V domains shown)
VH: EVQLLESGGGLVQPGGSLRLSCTASGFTFSSYAMNWVRQAPGKGLEWVSAISGSGGTTFYADSVKGRFTISRDNSRTTLYLQMNSLRAEDTAVYYCAKDLGWSDSYYYYYGMDVWGQGTTVTVSS
VL: DIQMTQFPSSLSASVGDRVTITCRASQGIRNDLGWYQQKPGKAPKRLIYAASRLHRGVPSRFSGSGSGTEFTLTISSLQPEDFATYYCLQHNSYPCSFGQGTKLEIKR
notes: as for B2
B4: anti-IGF-IR antibody 2.14.3 (antibody, human IgG2, V domains shown)
VH: GPGLVKPSETLSLTCTVSGGSISNYYWSWIRQPAGKGLEWIGRIYTSGSPNYNPSLKSRVTMSVDTSKNQFSLKLNSVTAADTAVYYCAVTIFGVVIIFDYWGQGTLVTVSS
VL: SSLSASVGDRVTFTCRASQDIRRDLGWYQQKPGKAPKRLIYAASRLQSGVPSRFSGSGSGTEFTLTISSLQPEDFATYYCLQHNNYPRTFGQGTEVEIIR

Columns and labels:
human IGF-IR on cells [1] = target: T1, human IGF-IR on cells (human, UniProt P08069 31-1367); assay: cell-based or functional assay
human IGF-IR on cells [2] = target: T1, human IGF-IR on cells; assay: inhibition of [125I]-IGF-I binding to IGF-IR-transfected NIH-3T3 cells
Experimental: We plated IGF-IR-transfected NIH-3T3 cells (5×10⁴/ml) in 100 μl of DMEM high glucose media supplemented with L-glutamine (0.29 mg/ml), 10% heat-inactivated FBS, and 500 μg/ml each of geneticin, penicillin and streptomycin in 96-well U-bottom plates. We then incubated the plates at 37° C., 5% CO₂ overnight to allow cells to attach. We then decanted the media from the plates and replaced it with 100 μl fresh media per well. For testing, we diluted antibodies in assay media (DMEM high glucose media supplemented with L-glutamine, 10% heat-inactivated FBS, 200 μg/ml BSA and 500 μg/ml each of geneticin, penicillin and streptomycin) to the desired final concentration and added 50 μl per well. All samples were performed in triplicate. We then incubated the plates at 37° C. for ten minutes. […] We incubated the plates for 10 minutes at 37° C., decanted the media by blotting gently onto paper towels and washed twice with assay media. We then lysed the cells by adding 50 μl 0.1 N NaOH, 0.1% SDS and shaking the plates for five minutes at room temperature. We then transferred the samples to a scintillation plate, added 150 μl OptiPhase Supermix and read the signal on a Wallac Micro-Beta counter.

COS7 IGF-IR = COS7 IGF-IR (old world monkey (COS7 cells)); assay: cell-based or functional assay
Rhesus IGF-IR = Rhesus IGF-IR (rhesus, UniProt I2CWY3 31-736; I2CWY3 741-1367); assay: cell-based or functional assay
Rhesus IGF-IR, sequence (alpha, as listed by the source limits assumed, chain 1 of 2): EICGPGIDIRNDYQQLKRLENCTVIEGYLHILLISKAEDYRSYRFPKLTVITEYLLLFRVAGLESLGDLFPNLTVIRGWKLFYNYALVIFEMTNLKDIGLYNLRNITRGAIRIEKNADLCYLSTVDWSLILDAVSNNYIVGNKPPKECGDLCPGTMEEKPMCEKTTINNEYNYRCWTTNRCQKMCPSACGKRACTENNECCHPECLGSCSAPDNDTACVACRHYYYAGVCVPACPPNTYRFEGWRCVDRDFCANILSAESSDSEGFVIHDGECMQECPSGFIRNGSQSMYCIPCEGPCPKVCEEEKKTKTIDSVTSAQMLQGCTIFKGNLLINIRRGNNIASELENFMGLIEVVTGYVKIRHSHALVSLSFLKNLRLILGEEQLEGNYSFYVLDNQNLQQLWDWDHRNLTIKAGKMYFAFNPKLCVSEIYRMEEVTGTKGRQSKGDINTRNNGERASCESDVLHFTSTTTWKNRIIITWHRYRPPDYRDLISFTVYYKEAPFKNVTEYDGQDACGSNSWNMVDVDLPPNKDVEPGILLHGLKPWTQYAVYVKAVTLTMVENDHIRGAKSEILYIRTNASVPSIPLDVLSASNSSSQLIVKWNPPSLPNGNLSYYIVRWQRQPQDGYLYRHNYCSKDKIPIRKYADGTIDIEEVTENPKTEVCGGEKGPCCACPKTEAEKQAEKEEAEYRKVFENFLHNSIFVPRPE
Rhesus IGF-IR, sequence (beta, as listed by the source limits assumed, chain 2 of 2): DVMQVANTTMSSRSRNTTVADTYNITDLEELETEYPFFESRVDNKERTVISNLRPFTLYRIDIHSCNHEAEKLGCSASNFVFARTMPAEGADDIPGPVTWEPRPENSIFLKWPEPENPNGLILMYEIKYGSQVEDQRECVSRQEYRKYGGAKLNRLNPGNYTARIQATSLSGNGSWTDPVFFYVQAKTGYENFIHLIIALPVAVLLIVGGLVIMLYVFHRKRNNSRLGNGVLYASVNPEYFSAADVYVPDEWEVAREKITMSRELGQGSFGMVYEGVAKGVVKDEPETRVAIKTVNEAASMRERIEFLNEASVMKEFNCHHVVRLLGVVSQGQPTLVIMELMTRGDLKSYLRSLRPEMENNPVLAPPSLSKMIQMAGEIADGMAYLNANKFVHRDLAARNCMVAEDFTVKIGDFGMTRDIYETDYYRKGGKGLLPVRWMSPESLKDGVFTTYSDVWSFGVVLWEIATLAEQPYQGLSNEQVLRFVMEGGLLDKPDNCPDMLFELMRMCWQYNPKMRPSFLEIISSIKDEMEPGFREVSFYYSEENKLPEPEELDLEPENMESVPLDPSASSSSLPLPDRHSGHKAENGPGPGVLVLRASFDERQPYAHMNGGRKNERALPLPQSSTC

cynomologous IGF-IR = target: T2, cynomologous IGF-IR (cynomologous); assay: flow cytometry, biotinylated antibody on cynomologous cells, streptavidin-RPE
T2 construct: whole, on cells; also called IGF-IR of cynomologous cells
Experimental: We performed FACS analysis to determine the affinity of the antibodies of the invention for IGF-IR from other animals, particularly the old world monkeys described above. We incubated aliquots of human and monkey cells (5×10⁵) for 1 hour on ice with increasing concentrations of biotinylated anti-IGF-IR antibodies of the invention or with a biotinylated anti-keyhole limpet hemocyanin (KLH) antibody (Abgenix) as a negative control. We then incubated the samples for 30 minutes on ice with steptavidin-conjugated RPE (phycoerythrin). We measured binding by flow cytometry and analyzed the histograms of fluorescence intensity (Fl2-H) versus cell number (Counts) using CellQuest software. We calculated binding (Kd) for each antibody from graphs of mean fluorescence intensity versus antibody concentration. In most experiments, we measured binding in cultured human MCF-7 cells and either rhesus or cynomologous tissue culture cells. We controlled for depletion of the antibody by measuring binding over a range of cell concentrations.

canine IGF-IR = target: T3, canine IGF-IR (canine, UniProt A0A8I3MER7 10-1344); assay: immunoprecipitation and Western blot on cells
T3 construct: whole, on cells
T3 sequence (A0A8I3MER7 entry or part of it): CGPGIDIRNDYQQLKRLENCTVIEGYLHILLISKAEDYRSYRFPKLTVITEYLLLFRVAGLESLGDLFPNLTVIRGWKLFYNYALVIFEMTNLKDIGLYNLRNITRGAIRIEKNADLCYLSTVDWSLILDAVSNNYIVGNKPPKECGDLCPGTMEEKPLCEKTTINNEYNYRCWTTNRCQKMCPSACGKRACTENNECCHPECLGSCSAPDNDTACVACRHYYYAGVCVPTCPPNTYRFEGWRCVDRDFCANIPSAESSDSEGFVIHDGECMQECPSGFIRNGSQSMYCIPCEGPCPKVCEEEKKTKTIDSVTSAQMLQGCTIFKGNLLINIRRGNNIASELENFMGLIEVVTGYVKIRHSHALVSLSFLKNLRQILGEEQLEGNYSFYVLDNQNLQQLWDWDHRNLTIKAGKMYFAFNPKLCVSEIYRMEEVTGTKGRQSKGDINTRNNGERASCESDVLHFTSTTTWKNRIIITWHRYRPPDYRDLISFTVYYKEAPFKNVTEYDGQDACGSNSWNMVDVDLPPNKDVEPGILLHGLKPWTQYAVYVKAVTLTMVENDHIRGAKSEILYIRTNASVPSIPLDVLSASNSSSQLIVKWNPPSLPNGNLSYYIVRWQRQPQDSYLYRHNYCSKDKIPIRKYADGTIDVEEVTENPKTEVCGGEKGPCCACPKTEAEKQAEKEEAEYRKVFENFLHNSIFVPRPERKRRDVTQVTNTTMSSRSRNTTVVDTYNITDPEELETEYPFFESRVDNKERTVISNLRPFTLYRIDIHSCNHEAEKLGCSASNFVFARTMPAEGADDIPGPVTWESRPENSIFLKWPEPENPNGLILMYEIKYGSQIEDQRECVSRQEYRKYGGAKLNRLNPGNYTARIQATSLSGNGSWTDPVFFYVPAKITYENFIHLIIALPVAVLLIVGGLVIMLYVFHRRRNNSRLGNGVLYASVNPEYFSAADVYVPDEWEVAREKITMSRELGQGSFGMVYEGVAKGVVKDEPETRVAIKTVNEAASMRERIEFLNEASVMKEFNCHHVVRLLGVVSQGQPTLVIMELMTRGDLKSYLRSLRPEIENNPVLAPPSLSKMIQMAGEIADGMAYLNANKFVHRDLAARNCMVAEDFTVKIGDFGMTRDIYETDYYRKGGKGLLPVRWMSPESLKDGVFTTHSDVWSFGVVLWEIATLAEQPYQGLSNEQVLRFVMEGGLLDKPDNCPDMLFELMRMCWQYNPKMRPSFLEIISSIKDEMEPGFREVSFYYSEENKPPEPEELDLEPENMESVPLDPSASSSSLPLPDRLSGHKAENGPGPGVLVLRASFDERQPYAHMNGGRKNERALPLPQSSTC
Experimental: (§1) The samples prepared as described above were then analyzed by Western blot. We loaded 12 μl of each sample per lane on 4-10% gradient Novex™ gels run with 1× MES buffer (Novex™). Gels were run at 150V for 1 hour or at 200V for approximately 30 minutes. We then transferred the gel to a membrane in Novex™ transfer buffer with 10% methanol either overnight at 100 mA or for 1-1.5 hours at 250 mA. We then allowed the membrane to dry completely and blocked at room temperature with TBS (Tris-buffered saline pH 8.0) containing Superblock (Pierce Chemical Co.). We added the IGF-IR blotting antibody SC713 (Santa Cruz) to detect immunoprecipitated IGF-IR.

rabbit IGF-IR = target: T4, rabbit IGF-IR (rabbit, UniProt G1TLR2 31-1366); assay: immunoprecipitation and Western blot on cells
T4 construct: whole, on cells
Experimental: as §1

guinea pig IGF-IR = guinea pig IGF-IR (guinea pig, UniProt H0V5D0 31-736; H0V5D0 741-1367); assay: immunoprecipitation and Western blot on cells
guinea pig IGF-IR, sequence (alpha, as listed by the source limits assumed, chain 1 of 2): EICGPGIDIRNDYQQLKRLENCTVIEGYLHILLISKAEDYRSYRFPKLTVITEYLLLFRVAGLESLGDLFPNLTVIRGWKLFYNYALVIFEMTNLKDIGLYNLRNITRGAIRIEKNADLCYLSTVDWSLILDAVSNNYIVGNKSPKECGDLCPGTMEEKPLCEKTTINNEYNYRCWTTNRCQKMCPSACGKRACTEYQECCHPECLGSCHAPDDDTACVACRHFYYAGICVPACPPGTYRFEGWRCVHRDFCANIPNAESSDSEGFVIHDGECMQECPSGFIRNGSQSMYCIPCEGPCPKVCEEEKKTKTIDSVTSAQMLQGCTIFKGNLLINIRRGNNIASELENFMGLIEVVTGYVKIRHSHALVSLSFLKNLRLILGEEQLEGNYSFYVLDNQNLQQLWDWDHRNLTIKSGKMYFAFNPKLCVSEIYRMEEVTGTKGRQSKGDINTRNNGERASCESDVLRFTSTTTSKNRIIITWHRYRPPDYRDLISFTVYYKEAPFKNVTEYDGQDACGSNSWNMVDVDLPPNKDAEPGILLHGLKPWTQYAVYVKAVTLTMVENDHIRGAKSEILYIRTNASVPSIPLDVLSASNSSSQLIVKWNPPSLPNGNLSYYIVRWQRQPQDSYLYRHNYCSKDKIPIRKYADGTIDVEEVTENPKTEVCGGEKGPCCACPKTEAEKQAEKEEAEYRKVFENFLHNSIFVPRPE
guinea pig IGF-IR, sequence (beta, as listed by the source limits assumed, chain 2 of 2): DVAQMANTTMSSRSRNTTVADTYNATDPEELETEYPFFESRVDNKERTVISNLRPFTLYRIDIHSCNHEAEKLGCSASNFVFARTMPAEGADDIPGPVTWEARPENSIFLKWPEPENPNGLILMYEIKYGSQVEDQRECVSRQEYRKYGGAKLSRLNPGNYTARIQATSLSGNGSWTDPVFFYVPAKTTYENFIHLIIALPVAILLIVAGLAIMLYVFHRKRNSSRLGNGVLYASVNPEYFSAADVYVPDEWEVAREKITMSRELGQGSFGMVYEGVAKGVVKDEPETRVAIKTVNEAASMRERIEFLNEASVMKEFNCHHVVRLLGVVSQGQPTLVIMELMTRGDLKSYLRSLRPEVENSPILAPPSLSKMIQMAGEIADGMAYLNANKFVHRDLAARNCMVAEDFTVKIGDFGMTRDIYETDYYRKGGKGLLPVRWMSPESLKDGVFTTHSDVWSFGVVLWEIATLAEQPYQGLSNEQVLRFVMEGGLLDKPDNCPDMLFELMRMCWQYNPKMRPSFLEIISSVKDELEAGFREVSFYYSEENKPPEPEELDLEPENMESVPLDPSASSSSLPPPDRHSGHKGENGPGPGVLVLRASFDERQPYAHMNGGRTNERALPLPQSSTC
Experimental: as §1

Binder | IC50 of inhibition of IGF-I-induced tyrosine phosphorylation of IGF-IR (ELISA, IGF-IR-transfected NIH-3T3 cells) (human IGF-IR on cells [1]) [µg/mL] | IC50 (human IGF-IR on cells [2]) [µg/mL] | IC50 of inhibition of IGF-I-induced phosphorylation of IGF-IR (immunoprecipitation, Western blot with HRP-PY54) (COS7 IGF-IR) [µg/mL] | IC50 of inhibition of IGF-I-induced phosphorylation of IGF-IR (immunoprecipitation, Western blot with HRP-PY54) (Rhesus IGF-IR) [µg/mL] | Kd (cynomologous IGF-IR) [µg/mL] | binding result (canine IGF-IR) | binding result (rabbit IGF-IR) | binding result (guinea pig IGF-IR)
B1 | 0.0324 | 0.1 | 0.02 | 0.005 | 0.1 | no binding (tested: 1 µg/ml) | no binding (tested: 1 µg/ml) | no binding (tested: 1 µg/ml)
B2 | 0.172 | 0.45 | – | – | – | no binding (tested: 1 µg/ml) | no binding (tested: 1 µg/ml) | no binding (tested: 1 µg/ml)
B3 | 0.0812 | 0.18 | 0.02 | 0.005 | 0.1 | no binding (tested: 1 µg/ml) | no binding (tested: 1 µg/ml) | no binding (tested: 1 µg/ml)
B4 | 0.325 | – | – | – | – | – | – | –
